Here are results for 8 molecules from US20190062420A1 (Janssen / Centocor, published 2019).

Experiment [1] has as its target T1, human FcγRIIB (NM_004001) expressed on cells (human, UniProt P31994 43-310).
T1 construct: Transiently expressed on Expi293F cells; also called Expi293F FcγRIIB; HEK293F cells expressing FcγRIIB
T1 sequence: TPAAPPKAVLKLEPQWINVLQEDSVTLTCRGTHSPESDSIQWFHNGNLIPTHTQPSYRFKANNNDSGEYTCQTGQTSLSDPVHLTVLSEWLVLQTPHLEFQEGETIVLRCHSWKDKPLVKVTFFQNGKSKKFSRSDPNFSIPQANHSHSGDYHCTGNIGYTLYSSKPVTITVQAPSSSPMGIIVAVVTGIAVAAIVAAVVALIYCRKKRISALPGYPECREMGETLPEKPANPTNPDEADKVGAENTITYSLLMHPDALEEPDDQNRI
Briefly: flow cytometry; Raji cells (express predominantly FcγRIIB). Background: In flow cytometry, cells or beads pass a laser one at a time.

Experiment [2] deals with T2, human FcγRIIA (NM_021642) expressed on cells (human, UniProt P12318 36-317).
T2 construct: Transiently expressed on Expi293F cells; also used here for FcγRIIA on human macrophages in the ADCP assay; also called Expi293F FcγRIIA; HEK293F cells expressing FcγRIIA
T2 sequence: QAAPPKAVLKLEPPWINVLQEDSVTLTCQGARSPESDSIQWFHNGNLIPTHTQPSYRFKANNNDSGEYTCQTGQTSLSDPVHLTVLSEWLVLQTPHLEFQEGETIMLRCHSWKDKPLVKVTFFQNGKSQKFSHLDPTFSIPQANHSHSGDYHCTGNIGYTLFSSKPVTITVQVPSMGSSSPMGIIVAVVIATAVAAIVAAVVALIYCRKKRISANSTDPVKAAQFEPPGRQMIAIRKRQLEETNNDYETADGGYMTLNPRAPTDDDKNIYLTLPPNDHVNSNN
Briefly: flow cytometry; Expi293F cells transfected with FcγRIIA. As for the experimental part:
(§1) Plasmids expressing cDNAs encoding human FcγRI (NM_000566) (SEQ ID NO: 44), FcγRIIA (NM_021642) (SEQ ID NO: 2), FcγRIIB (NM_004001) (SEQ ID NO: 3), and FcγRIIIA (NM_000569) (SEQ ID NO: 45) (Origene) were transiently transfected into Expi293F cells by ExpiFectamine293 transfection kit (Life Technologies). Flow cytometry assays were performed 48 h after transfection.
(§2) 2×10⁵ cells per well were seeded in 96-well plate and blocked in BSA Stain Buffer (BD Biosciences, San Jose, USA) for 30 min at 4° C. Cells were incubated with test mAbtyrin on ice for 1.5 h at 4° C. After being washed twice with BSA stain buffer, the cells were incubated with R-PE labeled anti-human or anti-mouse IgG secondary antibody (Jackson Immunoresearch Laboratories) for 45 min at 4° C. The cells were washed twice in stain buffer and then resuspended in 150 μL of Stain Buffer containing 1:200 diluted DRAQ7 live/dead stain (Cell Signaling Technology, Danvers, USA). PE and DRAQ7 signals of the stained cells were detected by Miltenyi MACSQuant flow cytometer (Miltenyi Biotec, Auburn, USA) using B2 and B4 channel respectively. Live cells were gated on DRAQ7 exclusion and the geometric mean fluorescence signals were determined for at least 10,000 live events collected. FlowJo software (Tree Star) was used for analysis. Data was plotted as the logarithm of antibody concentration versus mean fluorescence signals. Nonlinear regression analysis was performed by GraphPad Prism 6 (GraphPad Software, Inc.) and EC₅₀ values were calculated.

Experiment [3] concerns the target T1, human FcγRIIB (NM_004001) expressed on …. Briefly: flow cytometry; Raji cells (express predominantly FcγRIIB). As to the method: as §2
Raji cell is a cell line derived from B cells that express predominantly FcγRIIB. The binding of mAbtyrins on Raji cells were investigated by flow cytometry assay described for testing mAbtyrin binding to FcγR. Binding of the mAbtyrins were detected by flow cytometry using a PE-labeled Goat F(ab′) against Human IgG(γ).
This is another data set of the same source.

Experiment [4] has as its target T2, human FcγRIIA (NM_021642) expressed on …. The experiment can be described thus: cell-based or functional assay.
Experiment [5] deals with T1, human FcγRIIB (NM_004001) expressed on …. The experiment can be described thus: flow cytometry; Expi293F cells transfected with FcγRIIB. As for the experimental part: as §1, §2
The target of experiment [6] is T3, human OX40 expressed on HEK-Blue: OX40 cells (human, UniProt P43489 29-277).
T3 construct: also called CD134
T3 sequence: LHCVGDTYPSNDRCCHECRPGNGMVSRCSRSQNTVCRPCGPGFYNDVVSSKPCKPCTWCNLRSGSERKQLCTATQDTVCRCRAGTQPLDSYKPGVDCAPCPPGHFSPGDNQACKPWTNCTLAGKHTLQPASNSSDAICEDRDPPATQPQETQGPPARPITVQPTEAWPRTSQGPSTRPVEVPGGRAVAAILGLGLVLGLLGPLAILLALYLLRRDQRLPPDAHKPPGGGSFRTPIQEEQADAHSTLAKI
Briefly: flow cytometry; HEK-Blue: OX40 cells. As for the experimental part: as §2
The binding of mAbtyrins on OX40 expressed on cell surface were investigated by flow cytometry assay described for testing mAbtyrin binding to FcγR. A stable HEK-Blue reporter cell line expressing human OX40 (HEK-Blue: OX40) was established by transfection OX40 expression plasmid (pUNO1-hOX40) into HEK-Blue™ Null 1 cells engineered to express a secreted embryonic alkaline phosphatase (SEAP) reporter gene under the control of NF-κB-inducible promoter (IFN-β minimal promoter). mAbtyrins were incubated with HEK-Blue: OX40 cells and the binding was detected by flow cytometry using a PE-labeled Goat F(ab′)₂ against Human IgG(γ).

The target of experiment [7] is T1, human FcγRIIB (NM_004001) expressed on …. Briefly: cell-based or functional assay.
In a further experiment the target is T4, FcγRIIB protein (human, UniProt P31994 43-217, biotinylated (SureLINK Biotin Kit) in the ELISA of Example 1).
T4 construct: Soluble/recombinant antigen used in ELISA; also called bt-FcγRIIB; recombinant FcγRIIB protein
T4 sequence: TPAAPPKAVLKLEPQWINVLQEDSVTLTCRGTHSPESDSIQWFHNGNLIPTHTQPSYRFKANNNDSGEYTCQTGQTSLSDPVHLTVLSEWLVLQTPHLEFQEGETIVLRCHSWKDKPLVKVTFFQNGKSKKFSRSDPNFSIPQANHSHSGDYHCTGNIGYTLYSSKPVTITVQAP
The experiment can be described thus: ELISA; bt-FcγRIIB on streptavidin plate, purified FN3 domain titrated. As to the method:
(§3) For primary ELISA, Maxisorp 96-well plates were loaded with 100 μL per well of streptavidin (Promega; 5 μg/mL in PBS) and then held at 4° C. overnight. The next day, the streptavidin-coated plates were washed 3×TBST and then blocked with 250 μL Starting Block T20 (Pierce-cat#37543). After a 1 h incubation, all plates were washed 3 times with 1×TBST, loaded with 100 μL per well of either bt-FcγRIIA, bt-FcγRIIB, or bt-HSA (negative screen) all at 1 μg/mL, and held at room temperature for 1 h. The previously lysed FN3 domains were centrifuged at 3500 rpm for 10 minutes, diluted 1:10 in Starting Block T20 and added 100 μL each to the plates. After a 1 h incubation at room temperature, the plates were washed 3× with 1×TBST and the wells were loaded with 100 μL of a HRP conjugated rabbit polyclonal antibody against tencon 27. After a final 1 h incubation at room temperature, the plates were washed 3× with 1×TBST, loaded with 100 μL per well of the chemiluminescence substrate POD (Roche), and read in a Perkin Elmer Envision plate reader. Positive binding colonies (those clones showing 5-fold higher binding to FcγRIIA or FcγRIIB when compared to HSA) were subjected to Sanger sequencing and identified coding sequences were in silico translated to amino acid sequences. Sequence unique FN3 domains were expressed in BL21 cells and purified using nickel sepharose plates. Antigen binding of purified FN3 domains in a dilution series was performed. Specifically, in an ELISA format, Streptavidin coated plates (Promega #Z7041) were used to capture 50 μL of 1 μg/mL of either bt-FcγRIIB, bt-FcγRIIA, or as a negative control against sticky FN3 domains bt-HSA. To this FN3 domains were added at 10 μM then diluted 1:5 down to 128 pM, and detected for binding using a HRP conjugated rabbit polyclonal against tencon 27 and POD substrate (Roche #11582950001). Binding curves and EC50 values were calculated using X=log(x) transformation and non-linear regression (curved slope) calculations of Prism GraphPad.
(ELISA stands for enzyme-linked immunosorbent assay.)

Another experiment has as its target T5, FcγRIIA protein (human, UniProt P12318 36-217, biotinylated (SureLINK Biotin Kit) in the ELISA of Example 1).
T5 construct: Soluble/recombinant antigen used in ELISA; also called bt-FcγRIIA; recombinant FcγRIIA protein
T5 sequence: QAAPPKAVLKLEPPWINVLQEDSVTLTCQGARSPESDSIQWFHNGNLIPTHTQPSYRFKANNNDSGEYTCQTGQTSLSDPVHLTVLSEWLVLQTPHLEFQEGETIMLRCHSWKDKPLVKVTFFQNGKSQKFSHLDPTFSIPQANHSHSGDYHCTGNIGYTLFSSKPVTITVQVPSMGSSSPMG
Briefly: ELISA; bt-FcγRIIA on streptavidin plate, purified FN3 domain titrated. As for the experimental part: as §3

Numbering of substitutions follows the chain as printed.

B1: OX40SF2IgG2sigma_R2BS26_HC-C (bispecific antibody)
heavy: QVQLVQSGAEVKKPGSSVKVSCKASGYTFKDYTMHWVRQAPGQGLEWIGGIYPNNGGSTYNQNFKDRVTLTADKSTSTAYMELSSLRSEDTAVYYCARMGYHGPHLDFDVWGQGTTVTVSSASTKGPSVFPLAPCSRSTSESTAALGCLVKDYFPEPVTVSWNSGALTSGVHTFPAVLQSSGLYSLSSVVTVPSSNFGTQTYTCNVDHKPSNTKVDKTVERKCCVECPPCPAPPAAASSVFLFPPKPKDTLMISRTPEVTCVVVDVSAEDPEVQFNWYVDGVEVHNAKTKPREEQFNSTFRVVSVLTVLHQDWLNGKEYKCKVSNKGLPSSIEKTISKTKGQPREPQVYTLPPSREEMTKNQVSLTCLVKGFYPSDIAVEWESNGQPENNYKTTPPMLDSDGSFFLYSKLTVDKSRWQQGNVFSCSVMHEALHNHYTQKSLSLSPGKGGGGGSGGGGSGGGGSGGGGSLPAPKNLVVSRVTEDSARLSWTAPDAAFDSFPIAYIEYWTGGEAIVLTVPGSERSYDLTGLKPGTEYFVWIHGVKGGAWSSPLSAIFTT
light: DIQMTQSPSSLSASVGDRVTITCKASQDVGAAVAWYQQKPGKAPKLLIYWASTRHTGVPSRFSGSGSGTDFTLTISSLQPEDFATYYCQQYINYPLTFGGGTKVEIKRTVAAPSVFIFPPSDEQLKSGTASVVCLLNNFYPREAKVQWKVDNALQSGNSQESVTEQDSKDSTYSLSSTLTLSKADYEKHKVYACEVTHQGLSSPVTKSFNRGEC
notes: mAbtyrin: anti-OX40 antibody OX40SF2, effector silent IgG2sigma, with linker and R2BS26 FN3 domain at the C-terminus of the heavy chain; also called mAbtyrin
What is called EC50 is the concentration that produces a half-maximal response. High values mean weaker potency, low ones greater potency. For B1, the “fold binding signal over OX40SF2IgG2sigma at 10 µg/mL” value in [1] was no less than 6 fold. In experiment [2], the midpoint of the response, the EC50, lay at 0.323 µg/mL. In experiment [3], the “Binding to Raji cells mean signals at 10 µg/ml” value was 2290 mean fluorescence signal and the EC50 is greater than 10 µg/mL. The “% OX40 cell killed by macrophages (ADCP, 1 µg/ml)” value in experiment [4] came to 92%. The same molecule yielded an EC50 in experiment [5] of 1.38 µg/mL. Also, the “Binding to HEK-Blue: OX40 cells (mean signal at 1 µg/ml)” value in experiment [6] was determined as 10200 mean fluorescence signal. Also, in [7], the “% activity at 1 µg/ml with Raji cells (HEK-Blue: OX40 NF-κB reporter, relative to 1 µg/ml OX40 ligand)” value is 103% and the “fold of agonism enhancement upon crosslinking (Raji cells)” value stood at 25 fold.

B2: R2BS6 (designed binder)
chain: LPAPKNLVVSRVTEDSARLSWTAPDAAFDSFLIQYQESEKVGEAIVLTVPGSERSYDLTGLKPGTEYTVSIYGVQYAAWYLPRHHEASNPLSAIFTT
notes: expressed in E. coli BL21 and purified on nickel sepharose; also called R2BS6 FN3 domain
For B2, the values for the concentration giving a half-maximal response (EC50) with FcγRIIB protein and with FcγRIIA protein were 7.59 nM and 27.3 nM, respectively.

B3: R2BS39 (designed binder)
chain: LPAPKNLVVSRVTEDSARLSWTAPDAAFDSFLIQYQESEKVGEAIVLTVPGSERSYDLTGLKPGTEYTVSIYGVSHGPWYNYGEWRSNPLSAIFTT
notes: expressed in E. coli BL21 and purified on nickel sepharose; also called R2BS39 FN3 domain
Turning to B3, the EC50 in the experiment with FcγRIIB protein came to 419 nM; in the experiment with FcγRIIA protein it was 15.5 nM.

B4: R2BS29 (designed binder)
chain: LPAPKNLVVSRVTEDSARLSWTAPDAAFDSFPIYYWEYRVGGEAIVLTVPGSERSYDLTGLKPGTEYFVYINGVKGGEESRPLSAIFTT
notes: expressed in E. coli BL21 and purified on nickel sepharose; also called R2BS29 FN3 domain; R2B29
With B4, the EC50 came out at 3.57 nM with FcγRIIB protein and 3.22 nM with FcγRIIA protein.

B5: R2BS26 (designed binder)
chain: B4 chain with Y34A, W36I, R39W, V40T, Y70W, N72H, E78A, E79W, R81S
notes: expressed in E. coli BL21 and purified on nickel sepharose; also called R2BS26 FN3 domain
Regarding B5, the figures for the EC50 with FcγRIIB protein and with FcγRIIA protein were 5.3 nM and 6.51 nM, respectively.

B6: R2BS56 (designed binder)
chain: B4 chain with P32S, Y34A, V40K, Y70L, N72Y, E78W, E79Q, R81K
notes: expressed in E. coli BL21 and purified on nickel sepharose; also called R2BS56 FN3 domain; R2B56
B6: the concentration giving a half-maximal response (EC50) came out at 7.32 nM with FcγRIIB protein and 5.5 nM with FcγRIIA protein.

B7: R2BS9 (designed binder)
chain: B4 chain with P32W, W36L, R39W, V40R, Y70Q, N72H, E78Q, E79Y, R81Y
notes: expressed in E. coli BL21 and purified on nickel sepharose; also called R2BS9 FN3 domain
As for B7, the figures for the EC50 in the experiment with FcγRIIB protein and with FcγRIIA protein were 4.51 nM and 5.49 nM, respectively.

B8: R2BS12 (designed binder)
chain: B4 chain with P32L, Y34A, W36A, R39W, V40E, I45V, Y70Q, E78F, E79W, R81I
notes: expressed in E. coli BL21 and purified on nickel sepharose; also called R2BS12 FN3 domain; R2B12
As for B8, the EC50 with FcγRIIB protein was found to be 43 nM; in the experiment with FcγRIIA protein it was 9.6 nM.
